This experiment has as its target in vitro assembled HIV-1 CA-NC complexes (HIV-1). The experiment can be described thus: co-sedimentation; 5 µl in vitro assembled CA-NC particles incubated with 200 µl 293T cell lysate (capsid-binding buffer plus 1X PBS) at room temperature for 1 hour; spun through a 70% sucrose cushion at 100,000×g for 1 hour at 4°C; pellet (BOUND) and INPUT analysed by Western blotting (anti-GFP, anti-HA, anti-p24); fluorescent quantification of three independent experiments. On the technique in general: A western blot detects proteins with antibodies after separation by electrophoresis.

Regarding “GFP-RanBP2 (full-length Nup358/RanBP2 fused to GFP) (from UniProt P49792 1-3224) (natural protein)”, the ratio bound/input was 1.
The figure for “GFP-RanBP2-ΔCyp deletion mutant (from UniProt P49792 1-2786) (domain or fragment)” is 0.39.

Values taken from paper PMC3457934.
